The labels stand for the following.
B1: AtGH3-17: GH3 protein, accession Q9FZ87 (protein, listed as Arabidopsis thaliana)
chain: MIPSYDPNDTEAGLKLLEDLTTNAEAIQQQVLHQILSQNSGTQYLRAFLDGEADKNQQSFKNKVPVVNYDDVKPFIQRIADGESSDIVSAQPITELLTSSGTSAGKPKLMPSTAEELERKTFFYSMLVPIMNKYVDGLDEGKGMYLLFIKPEIKTPSGLMARPVLTSYYKSQHFRNRPFNKYNVYTSPDQTILCQDSKQSMYCQLLCGLVQRSHVLRVGAVFASAFLRAVKFLEDHYKELCADIRTGTVTSWITDSSCRDSVLSILNGPNQELADEIESECAEKSWEGILRRIWPKAKYVEVIVTGSMAQYIPTLEFYSGGLPLVSTMYASSECYFGINLNPLCDPADVSYTLLPNMAYFEFLPVDDKSHEEIHFATHSNTDDDDDALKEDLIVNLVNVEVGQYYEIVITTFTGLYRYRVGDILKVTGFHNKAPQFRFVQRRNVVLSIDTDKTSEEDLLNAVTQAKLNHLQHPSSLLLTEYTSYADTSSIPGHYVLFWELKPRHSNDPPKLDDKTMEDCCSEVEDCLDYVYRRCRNRDKSIGPLEIRVVSLGTFDSLMDFCVSQGSSLNQYKTPRCVKSGGALEILDSRVIGRFFSKRVPQWEPLGLDS
B2: OsGH3-10: GH3 protein, accession Q6ZLA7 (protein, listed as Oryza sativa)
chain: MAAKGISTIGAASRSLSSSLMAAAKEPDVENLRLIEELTSNVDAVQERVLAEILGRNADAEYLDKCGLDASDTDRATFRAKVPVASYDDLKPYVKRIANGDRSPILSTHPIIEFFTSSGTSAGERKLMPIVTDEMARREVLSSLATSVLNVYVPGLHTGKGLYFLFARSETKTPGGLTAQPALTSVYKSEHFKRAYAYTSPMAAILCEDASQSMYAQMLCGLCQRHDVLRVGAVFAAALVRAIRFLQLNWAQLAADIETGELNPRVTDPSDRECSRGDWTGIVTRLWPKTKCLNVVVTGVMAQYIPTLQYYSGGLPIVSGMYASSECFFGLNLRPLCGPSEVSYTIMPNTAYFEFLPVGEAVDASNLVELARVEDGREYEVVVTTYAGLNRYRVGDVLCVTGFHNAAPQFRFVRRQSVLLSIEADKTDEAELQRAVERASSALLRPRGASIVEYTSRACTERVPGHFSPALPHWTLAP
B3: SmXP_002981880: GH3 protein, accession XP_002981880 (protein, listed as Selaginella moellendorffii)
chain: MAASAIAEFEDACKNAASIQEELLLGILRKNACCEYLQKYGSPLTVAAFKSQVPVIGYDDIRSDLERIAGGDRGQILCHDPITSFFTSSGTSSGKNKNIPATYENTVSVVKVLESSYAYKTNYFDLGKGRSVSLLYFKDLHATKSGLVFGPVTAHGIRSTRFRQVWRSSRTTPYEVLVAASDFRELTYCHLLCALLQRHEVEQVECMYAYSICEALRLFQNEYWEELCNDIRTASLSKTKVMDPKLRKAFERAGVFRSKCGNAMEADKIFKICSNESWSGILPLLFPKAKLVSAVVTGAMTHYVPTLSFYAGDQLPIVGQGFFSSEGGIGINIDPLSPPEDVIYTVTPRSLYYEFLPLGATEALSMHEVVIGELYEILVTNFAGLYRCRMGDVVQITSFFHGAPQMAYHHRKNAVMCINNETVDEQMLQNVVNKVSKDAGVEVLDFMIYGDPAAVPPSYTIFWELGNAKDYSKTQVLEQCCANVLKSFNPEHTRKGTDGLIDSFELVIVKKGTFERLMEEAVKNGASPAQYKTPRCVASSRILEALNSGRVHSYKSSAMSKVN
B4: SbEES16535: GH3 protein, accession EES16535 (protein)
chain: MAHTPAMENSYVQVHHLATSMAIHTHKPFLAPPKHVHLAFHSPTSAPSRLLATTRSRPGLSQPAAMMAETDADKLRFIEEVTADVAAVQERVLAEILSRNADAEYLSTRCGGATDRATFRAKVPMVTYEDLQPYILRIAHGDRSPILSGSGYPVSELLTSSGAGDRKLIPVVDDDHDRHHRLHSLVGAVVNQYVPGLDKGSGLYFLFVKSETTTPGGLPARTILTRIFTSDGVWKLPYNPRRGLTSPAAAVVCEDTFQSMYTQMLCGLCHRHSVLRVGAAFASGVLRAIRFFQRNWPQLAADIDAGTITDRVTDHVLRQALAGVLTQPDPDLARVVRSEGSKADDGADMAGIIARLWPNTKYVHAVATGSMAHYVPALNHYSGGLPIVSTAYFSSECSVGINLRPMCDPSEVSYTVMPNMAYFEFLPTDDDDATASATSQLVELAGVEVGREYELVVTTYSGLCRYRVGDVLRVTGFHNTAPQLRFVRRRNAVLSVESDKTDEVELQRAVDRASAALLRPLGAAVADYTARTCAETVPGHYVVYWELQLPLGAADVVVDGGDVLDRCCLEMEEALSSVYRQSRVADGTVGPLEIRVVRPGTFEELADHAVARGASVGQYKVPRCVTAPPDIELLDSRVVSNHFSPALPKWVPG
modifications: Sorghum bicolor
B5: AtGH3-3: GH3 protein, accession O22190 (protein, listed as Arabidopsis thaliana)
chain: MTVDSALRSPMMHSPSTKDVKALRFIEEMTRNVDFVQKKVIREILSRNSDTEYLKRFGLKGFTDRKTFKTKVPVVIYDDLKPEIQRIANGDRSMILSSYPITEFLTSSGTSAGERKLMPTIDEDMDRRQLLYSLLMPVMNLYVPGLDKGKALYFLFVKTESKTPGGLPARPVLTSYYKSEQFKRRPNDPYNVYTSPNEAILCPDSSQSMYTQMLCGLLMRHEVLRLGAVFASGLLRAIGFLQTNWKELADDISTGTLSSRISDPAIKESMSKILTKPDQELADFITSVCGQDNSWEGIITKIWPNTKYLDVIVTGAMAQYIPMLEYYSGGLPMACTMYASSESYFGINLKPMCKPSEVSYTIMPNMAYFEFLPHHEVPTEKSELVELADVEVGKEYELVITTYAGLNRYRVGDILQVTGFYNSAPQFKFVRRKNVLLSIESDKTDEAELQSAVENASLLLGEQGTRVIEYTSYAETKTIPGHYVIYWELLVKDQTNPPNDEVMARCCLEMEESLNSVYRQSRVADKSIGPLEIRVVKNGTFEELMDYAISRGASINQYKVPRCVSFTPIMELLDSRVVSTHFSPALPHWSPERRR
B6: AlGH3-12: GH3 protein, accession XP_002871561 (protein, listed as Arabidopsis lyrata)
chain: MKPISDINESFEKQLKYLTSDVKQIQDNLLEEIITPNTKTEYLQRFLIGRFDKDLFKKNVPIVTYEDIKPYLDRVVNGESSDVISARPITGFLLSSGTSGGAQKMMPWNNKYLDNLTFIYDLRMQVITKHVKGVEEGKGMMFLFTKQESMTPSGLPARVATSSYFKSDYFKHRPSNWYYSYTSPDEVILCPNNTQSLYCHLLCGLVQRDEVVRTGSIFASVMVRAIEVLKNSWEELCSNIRSGHLSNWVTDLGCQSSVSLVLGGPRPELADTIEEICNQKSWKGIVKRLWPNTKYIETVVTGSMGQYVPMLNYYCNDLPLVSTTYGSSETTFGINLDPLCKPEDVSYTFMPNMSYFEFIPMDGDNNDVVDLEDVKLGCTYEPVVTNFAGLYRMRVGDIVLVTGFYNNAPQFKFVRRENVVLSIDSDKTNEEDLFKAVSQAKLVLESSGLDLKDFTSYADTSTFPGHYVVYLEVDTKEGEEKKTAQFELDEEALSMCCLVMEESLDNVYKRCRFKDGSIGPLEIRVVRQGTFISLMDFFISQGASTGQYKTPRCIKSGKALQVLETCVVAKFFSS

The first data set in a line: LC-MS assay of GH3 conjugation of IAA with Asp or Glu. It counts as biochemical. The conditions noted are these: IAA with Asp. The protocol:
(§1) To detect and monitor the formation of acyl conjugates with 2,4-D or dicamba, a sensitive LC-MS method was developed using the respective amino acid conjugate standards. […] The reaction was performed at 30° C., 105 rpm, for 3 hours in buffer containing 20 mM Tris-HCl (pH 8.0), 5 mM MgCl2, 5 mM auxin (IAA, 2,4-D or dicamba), 5 mM ATP, 5 mM Asp or Glu, 1 mM DTT and 44 to 164 μg/mL purified GH3 protein in 100 μL reaction. After 3 hours of reaction, 400 μL 100% MeOH was added to the reaction mixture for protein precipitation. The supernatant was diluted 20× in water and then analyzed by LC-MS (AB Sciex 4000 QTrap coupled with Shimadzu Nexera UHPLC) using a Phenomenex Luna 3 μm Phenyl-Hexyl (00B-4256-Y0) column. The concentration of the conjugates was calculated based on the standards. Kinetic parameters were estimated by fitting initial velocity values to the Michaelis-Menten equation.
(§2) The GH3 superfamily conjugase activity analysis of IAA, 2,4-D or dicamba with Asp or Glu was done using LC-MS to analyze the final conjugate products as described in Example 1. Protein sequences of GH3 homologs (Table 3) were obtained from public databases (NCBI, http://www.ncbi.nlm.nih.gov/) by Blast analysis of AtGH3.17 protein sequence (accession # Q9FZ87). Coding sequences were designed for optimal expression in E. coli based on the protein sequences and synthesized. Synthesized coding sequences along with N-term his-tag coding sequences were cloned into a pET24a-based E. coli expression vector. The E. coli expression vectors were transformed into OverExpress C41(DE3) cells (Lucigen) for protein expression. Recombinant E. coli strains were inoculated into 5 ml LB media supplemented with 40 mg/L kanamycin and cultured overnight at 37° C. The overnight culture (0.5 mL) was inoculated into 50 mL LB medium plus 40 mg/L kanamycin and grown at 30° C. until OD600 reached 0.6. The cultures were induced with 0.2 mM IPTG at 16° C., 230 rpm overnight. Cells were harvested by centrifugation at 7,000 rpm for 10 mins. The cell pellet from 50 mL of cell culture was frozen and thawed twice and then lysed in 800 μL lysis buffer A (150 mM NaCl, 50 mM Tris-HCl pH 8.0, 5 mM MgCl2, 10% glycerol) plus 20 mM imidazole, 1 mM DTT, 0.2 mg/ml lysozyme, 1/200 protease inhibitor cocktail (EMD set3, EDTA free) and 1/2000 endonuclease. Lysate was then centrifuged at 13,000 rpm for 30 min at 4° C. Supernatant was loaded onto 200 μL Ni-NTA columns pre-equilibrated with buffer A with 20 mM imidazole at 4° C. Each column was then washed with (1) 2×800 μL of buffer A with 10 mM imidazole, (2) 2×800 μL of buffer A with 20 mM imidazole and (3) 2×200 μL of buffer A with 50 mM imidazole. Protein was eluted with 200 μL of buffer A with 250 mM imidazole. The concentration was measured by Bradford assay. Purified protein was used in conjugation reaction assays as described in example 1.
As for B1, the “kcat, conjugation of IAA with Asp” value came out at 0.0144 s⁻¹.

Staying with this data set, now noted: IAA with Glu.
On to B1, for which the “kcat, conjugation of IAA with Glu” value was found to be 0.241 s⁻¹.

Staying with this data set, now noted: conjugation of IAA with Asp by recombinant GH3 protein; IAA-Asp product by LC-MS.
Turning to B1, the “kcat (hrs−1) IAA-Asp” value came out at 51.838 h⁻¹.

With B2, the “kcat (hrs−1) IAA-Asp” value amounted to 0.000 h⁻¹.

With B3, the “kcat (hrs−1) IAA-Asp” value was found to be 1.475 h⁻¹.

As to B4, the “kcat (hrs−1) IAA-Asp” value was found to be 0.000 h⁻¹.

As to B5, the “kcat (hrs−1) IAA-Asp” value came to 0.000 h⁻¹.

The same data set, now with this note: conjugation of IAA with Glu by recombinant GH3 protein; IAA-Glu product by LC-MS.
For the molecule B1, the “kcat (hrs−1) IAA-Glu” value came out at 867.723 h⁻¹.

In the case of B2, the “kcat (hrs−1) IAA-Glu” value came out at 0.000 h⁻¹.

On to B3, for which the “kcat (hrs−1) IAA-Glu” value came to 1.759 h⁻¹.

For B4, the “kcat (hrs−1) IAA-Glu” value worked out at 0.000 h⁻¹.

Turning to B5, the “kcat (hrs−1) IAA-Glu” value was found to be 0.000 h⁻¹.

Still in this data set, the particulars now being: result in words.
With B2, the “IAA conjugation activity with Asp or Glu” value was “IAA-inactive”.

Consider B6, for which the “Conjugation of Glu to IAA” value is given as “can also conjugate Glu to IAA”.

For B3, the “IAA conjugation activity with Asp or Glu” value was “can also conjugate IAA to Asp and Glu”.

Take B4: the “IAA conjugation activity with Asp or Glu” value is “IAA-inactive”.

Regarding B5, the “IAA conjugation activity with Asp or Glu” value is “IAA-inactive”.

The nature of a further data set: LC-MS assay of GH3 conjugation of 2,4-D with Asp or Glu. Format: biochemical. The following applies: conjugation of 2,4-D with Asp by recombinant GH3 protein; 2,4-D-Asp product by LC-MS; 5 mM 2,4-D substrate. As for the experimental part:
as §1, §2
Take B1: the “kcat (hrs−1) 2,4-D-Asp” value turned out to be 0.424 h⁻¹.

As to B2, the “kcat (hrs−1) 2,4-D-Asp” value is 0.000 h⁻¹.

Take B3: the “kcat (hrs−1) 2,4-D-Asp” value worked out at 0.144 h⁻¹.

Take B4: the “kcat (hrs−1) 2,4-D-Asp” value turned out to be 0.000 h⁻¹.

In the case of B5, the “kcat (hrs−1) 2,4-D-Asp” value came to 0.000 h⁻¹.

Still in this data set, the particulars now being: conjugation of 2,4-D with Glu by recombinant GH3 protein; 2,4-D-Glu product by LC-MS; 5 mM 2,4-D substrate.
For the molecule B1, the “kcat (hrs−1) 2,4-D-Glu” value was 0.988 h⁻¹.

Take B2: the “kcat (hrs−1) 2,4-D-Glu” value is 0.000 h⁻¹.

Consider B3, for which the “kcat (hrs−1) 2,4-D-Glu” value amounted to 0.739 h⁻¹.

In the case of B4, the “kcat (hrs−1) 2,4-D-Glu” value is 0.000 h⁻¹.

Take B5: the “kcat (hrs−1) 2,4-D-Glu” value turned out to be 0.000 h⁻¹.
